Results: the supplement of paper PMC10567573
± gives the standard deviation.

Test: protein stability index of a GFP-peptide fusion (GPS, HEK-293T) (PSI 1-6); higher = more stable
[1] = treatment: DMSO, c terminus: a fixed tail appended
[2] = treatment: MLN4924 1 uM, 8 h, c terminus: a fixed tail appended
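Also: 24-mer peptide tiles fused after GFP, lentivirally expressed, FACS-sorted into six equal bins by GFP/DsRed ratio, decoded by Illumina sequencing, PSI is the read-weighted mean bin number.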

Row | Sequence | protein stability index [1] | protein stability index [2] | protein stability index (treatment: DMSO, c terminus: native) | protein stability index (treatment: MLN4924 1 uM, 8 h, c terminus: native)
1 | VCYFTNWAQYRQGEARFLPKDLDP [CHIT1] | 2.32 ± 0.14 | 2.34 ± 0.17 | – | –
2 | HGPGHETPMTIPEFFRESVNRFGT [ACSBG2] | 3.54 ± 0.29 | 3.6 ± 0.13 | – | –
3 | IRISMSHEEEPLGTAGPLALARDL [GMPPB] | 3 ± 0.053 | 3.27 ± 0.34 | – | –
4 | ERSQEESPPGSTKRRKSMSGASPK [CDC25A] | 5.48 ± 0.19 | 5.46 ± 0.12 | – | –
5 | EEGPTVVLNPHPSLGYKEIRKGES [CHGA] | 4.96 ± 0.29 | 5.03 ± 0.27 | – | –
6 | GRDWRHLPTITSELSGAPRCHTVP [PXN] | 3.44 ± 0.48 | 3.51 ± 0.17 | – | –
7 | LCWDPVQRVLFSGSSDHSVIMWDI [WDFY2] | 2.26 ± 0.34 | 1.93 ± 0.45 | – | –
8 | TLSGTCLLIANKRQSYDISIVAQV [CARM1] | 2.38 ± 0.69 | 2.68 ± 1.5 | – | –
9 | IRRPVNVPIDIFSEEIRFYQLGEE [KCNA3] | 2.59 ± 0.56 | 2.75 ± 0.37 | – | –
10 | PERLHAIKEQLIQEGLLDRCVSFQ [HDAC6] | 2.88 ± 0.11 | 3.18 ± 0.12 | – | –
11 | VENKEKDSNMPHFQTLQAIVSHFQ [CEP70] | 2.89 ± 0.27 | 3.18 ± 0.36 | – | –
12 | HKVAPLVQSLCAKHGIEYQSKPLL [FADS1] | 2.68 ± 0.34 | 3 ± 0.17 | – | –
13 | AVARSPKRPAWGSRRFEAVGWWAL [POMT2] | 2.88 ± 0.97 | 2.49 ± 0.51 | – | –
14 | LGIPKSTTSDIPHMLNQVESKVKD [FAM98B] | 5.04 ± 0.27 | 5.23 ± 0.11 | – | –
15 | VLDCRPYLAFAASNVRGSLNVNLN [DUSP5] | 2.19 ± 0.34 | 1.99 ± 0.39 | – | –
16 | WEPRRDMWVRFRAFEAARDLDACA [ZSWIM9] | 2.79 ± 0.34 | 2.72 ± 0.2 | – | –
17 | RIVHLQETCDLGKIKPEARRYLEK [NLN] | 3.25 ± 0.51 | 3.66 ± 0.67 | – | –
18 | VTKLCVQFLNDQISVQNYKQVCKI [KLHL14] | 2.76 ± 0.46 | 2.42 ± 0.56 | – | –
19 | PLMQGPRTRPRKPIRCGEVLFAVG [KLHL20] | 2.23 ± 0.33 | 1.92 ± 0.5 | – | –
20 | RNQTQVLRQQQDEAYLASLRADQE [FAF2] | 5.18 ± 0.32 | 5.17 ± 0.16 | – | –
21 | ELEDKDGLQSAQPTEGQGSLLTNW [MYBL2] | 5.03 ± 0.36 | 5.35 ± 0.31 | – | –
22 | WSPSPPATPEQGLSAFYLSYFDML [SPDEF] | 2.14 ± 0.45 | 2.33 ± 0.48 | – | –

Row | Sequence | protein stability index [1] | protein stability index [2] | protein stability index (treatment: DMSO, c terminus: native) | protein stability index (treatment: MLN4924 1 uM, 8 h, c terminus: native)
23 | VTLNFNVPGEFKQDVTVVGSAGRL [GFOD1] | 2.23 ± 0.74 | 2.15 ± 0.37 | – | –
24 | AAAQSYPGYLPYSPEPPSLYGALN [IRX6] | 2.68 ± 0.077 | 2.87 ± 0.2 | – | –
25 | YPIIFVYYLRKGKKINSNQLENEQ [SPANXN3] | 2.37 ± 0.33 | 2.14 ± 0.26 | – | –
26 | TRLEQEIATYRSLLEGQDAKMAGI [KRT15] | 3.7 ± 0.22 | 3.72 ± 0.18 | – | –
27 | SRLLGAAAGQRSRPSTYYELLGVH [DNAJC4] | 2.54 ± 0.57 | 2.52 ± 0.42 | – | –
28 | LGDRLNVEVDAAPAVDLNQVLNET [KRT33B] | 4.93 ± 0.14 | 4.96 ± 0.097 | – | –
29 | SASSPASVGDPCGGAICGGPDHRL [SLC25A25] | 4.43 ± 0.23 | 4.58 ± 0.22 | – | –
30 | RGGSDPETTGIQIWSEVFTVEKPG [ATL3] | 4 ± 0.59 | 4.09 ± 0.28 | – | –
31 | QFLLELLSDKSCQSFISWTGDGWE [ETS2] | 1.83 ± 0.38 | 1.85 ± 0.29 | – | –
32 | LMPGVPPLMPGMPPVMPGMPPGLH [ZNF207] | 3.02 ± 0.33 | 2.99 ± 0.32 | – | –
33 | VGWWALLALVTLLSFATRFHRLDE [POMT2] | 3.42 ± 0.39 | 2.98 ± 0.39 | – | –
34 | YVYFFCTVPEILVHNIVIFMRTSV [TMEM106C] | 3.13 ± 0.43 | 2.92 ± 0.37 | – | –
35 | ASLHTLLGDPCPMLESPGAPCRSA [HDAC6] | 3.62 ± 0.23 | 3.83 ± 0.27 | – | –
36 | NQQLRNELQLEQSRAANQEQRAND [CEP70] | 5.48 ± 0.11 | 5.42 ± 0.24 | – | –
37 | CAKMEKDGYGMTPLLSASVTGHTN [FEM1C] | 3.58 ± 0.26 | 3.55 ± 0.11 | – | –
38 | LVSLTSRNPDQRKESLCISITVSK [FBXO34] | 2.26 ± 0.1 | 2.47 ± 0.15 | – | –
39 | KVHTVPKPGKGADLSKPPCRKAKE [ATE1] | 4.94 ± 0.24 | 5.125 ± 0.046 | – | –
40 | CFNRSREYQLNDSAAYYLNDLDRI [GNAI1] | 2.51 ± 0.25 | 2.46 ± 0.23 | – | –
41 | SSSVETGPSVSEPPGLPRVSAYVD [SPATS1] | 4.77 ± 0.35 | 4.72 ± 0.21 | – | –
42 | IASEPTNKHLFYAEDFSTMDEISE [MATN2] | 4.57 ± 0.27 | 4.59 ± 0.23 | – | –
43 | FIGETLLSMNWAIVADILLYVVIP [SPNS1] | 3.29 ± 0.34 | 3.45 ± 0.25 | – | –
44 | TNETNVNIPQMADTLFERATNSSW [SNAP91] | 3.77 ± 0.11 | 3.99 ± 0.2 | – | –

Row | Sequence | protein stability index [1] | protein stability index [2] | protein stability index (treatment: DMSO, c terminus: native) | protein stability index (treatment: MLN4924 1 uM, 8 h, c terminus: native)
45 | YWDGSGHRRTVKMRKGNTMQQFLQ [FAM50A] | 2.74 ± 0.12 | 2.72 ± 0.24 | – | –
46 | GSEENGRYFSLSLMSGALAVNQKI [PCDHGC5] | 2.49 ± 0.2 | 2.6 ± 0.23 | – | –
47 | SEYRSDIINAKSNDGWTPLHVAAH [ASB7] | 3.19 ± 0.38 | 3.27 ± 0.11 | – | –
48 | PIEVVTEGLLNTYQELLGLSFEQM [NLN] | 2.13 ± 0.37 | 2.29 ± 0.38 | – | –
49 | PTTSFLSISKLSPFSEFFKLRFNR [PWWP2B] | 2.07 ± 0.33 | 2.13 ± 0.36 | – | –
50 | TGGLGGERERQPCGDGNTETHRAP [SOAT2] | 5.37 ± 0.15 | 5.31 ± 0.19 | – | –
51 | VITYILLSGASPFLGETKQETLTN [DAPK3] | 2.75 ± 0.26 | 2.86 ± 0.4 | – | –
52 | LIVVTQSHLVIHNLFEGMIWFIVP [CDS2] | 3.06 ± 0.41 | 3.25 ± 0.59 | – | –
53 | SRSYSPRRSRGSPRYSPRHSRSRS [SRSF1] | 5.39 ± 0.24 | 5.5 ± 0.25 | – | –
54 | PPGPKGDQGDEGKEGRPGIPGLPG [SCARA5] | 5.69 ± 0.15 | 5.36 ± 0.41 | – | –
55 | SQYQCENGVSGPSQDLLPPPNPYP [TBX5] | 4.75 ± 0.16 | 4.64 ± 0.14 | – | –
56 | SPVNMVTVAMVAGQCEFAHILHS [ZNF649] | – | – | 2.08 ± 0.19 | 1.87 ± 0.25
57 | SSCIPKAFGNPKFALQGLPLNCAP [IRX6] | 2.46 ± 0.25 | 2.75 ± 0.18 | – | –
58 | MENLPGLASGPGKYMPHLCQDSSG | 4.05 ± 0.067 | 3.93 ± 0.12 | – | –
59 | SWRWIMLILFAWGTLLFYIGGHLV [FUT8] | 2.42 ± 0.14 | 2.27 ± 0.47 | – | –
60 | ILREIRHPNIITLHDIFENKTDVV [DAPK3] | 2.47 ± 0.21 | 2.54 ± 0.2 | – | –
61 | TLSNPQMSLEGTEKASWLGEQPQF [ELF3] | 4.26 ± 0.34 | 4.21 ± 0.37 | – | –
62 | PSNRSFFSEIISSISDVKFSHSGR [PPP2R2B] | 2.73 ± 0.44 | 2.78 ± 0.39 | – | –
63 | EEPQWVPDKECRRCMQCDAKFDFL [ZFYVE21] | 2.85 ± 0.45 | 2.95 ± 0.39 | – | –
64 | TEPLTHWYQVRCLFQSPLFAKAGD [CARM1] | 2.11 ± 0.36 | 2.15 ± 0.61 | – | –
65 | WTTEQQQRFHEICSNLVKTRRRAV [ARL6IP1] | 2.8 ± 0.2 | 3.07 ± 0.41 | – | –
